According to US20050261475A1:

Target: recombinant microtubule-associated protein Tau (Homo sapiens (Human)) (UniProt P10636)

in vitro phosphorylation, stoichiometry; MALDI-TOF MS of tryptic peptides (phosphates per Tau molecule): 0.5
Substance: purified active CDK5/p25 complex (enzyme)
